Consider 1 molecule from US20160046671A1.

Bridges are numbered along the chain shown (N, C = ends). Where no end group is shown, it is not given here. [ ]: non-standard residue; d: D form. S5 = C=CCCC[C@](C)(N)C(=O)O

This assay deals with Wild-type human KRAS protein, N-terminal His6-tag fusion (human), P01116. The assay is described as follows: fluorescence polarization. The settings on record: modification not given.

B1: SAH-SOS A2 (peptide)
chain: RRF[S5]GIY[S5]TNILKTEEGN
modifications: staple 4-8
The molecule B1 gave a Kd of 21 nM.

As usually defined, the Kd is the equilibrium constant for the complex coming apart. A high value points to a looser complex.
